In patent publication US20020090619A1, “Methods for identifying mitochondrial divalent cation transporters” (priority 2000, published 2002):

B1: Para-nitrobenzyl esterase: B. subtilis para-nitrobenzyl esterase from plasmid PNB106R (SEQ ID NO:1; SEQ ID NO:7) (protein, listed as Bascillus subtilis)
chain: MTHQIVTTQYGKVKGTTENGVHKWKGIPYAKPPVGQWRFKAPEPPEVWEDVLDATAYGPICPQPSDLLSLSYTELPRQSEDCLYVNVFAPDTPSQNLPVMVWIHGGAFYLGAGSEPLYDGSKLAAQGEVIVVTLNYRLGPFGFLHLSSFDEAYSDNLGLLDQAAALKWVRENISAFGGDPDNVTVFGESAGGMSIAALLAMPAAKGLFQKAIMESGASRTMTKEQAASTAAAFLQVLGINESQLDRLHTVAAEDLLKAADQLRIAEKENIFQLFFQPALDPKTLPEEPEKSIAEGAASGIPLLIGTTRDEGYLFFTPDSDVHSQETLDAALEYLLGKPLAEKAADLYPRSLESQIHMMTDLLFWRPAVAYASAQSHYAPVWMYRFDWHPEKPPYNKAFHALELPFVFGNLDGLERMAKAEITDEVKQLSHTIQSAWITFAKTGNPSTEAVNWPAYHEETRETVILDSEITIENDPESEKRQKLFPSKGE
B2: SalE esterase: Acinetobacter SalE esterase expressed in E. coli BL21(DE3) (SEQ ID NO:3) (protein, listed as Acinetobacter sp.)
chain: MITYVLVHGSWHDGSLWEPVATHLRAQGHTVHCPTVAGHGPNADRNVTHAQCSQSIADYIVKHDLSEIVLLGHSYGGTIISKVAEAIPERIQRLIYWNAFVLQDGENMFDNMPEAYYELFTSLAAASGDNTVLLPYEVWRHAFINDADDQMAEETYKMLTPEPCQPFHDRLDLKKFYTLNIPKSYLNCTEDQALPAGFWHPKMSNRLGEFKLVEMGGSHEAMFTRPQELATKIIEASHD
B3: HD-1 esterase: HD-1 esterase from an oil degrading bacterium (SEQ ID NO:4) (protein)
chain: MTLDAQAKAILDQIARSPMPKLHQVPASVARQMFEISCKLTEIKNLPIGRVEDRVIPGPDDTELPIRIYTPVAAPPGPLPVLVFFHGGGFVIGSLDSHDAPCRLIANEARCLVVSVDYRLAPENRFPAAVDDCLAAVTWVARNAAEINADPTRIAVGGDSAGGNLSAVVSQQLRDAGGPKIVFQLLIYPATDALHEGLSRTSNAEGYMLDKDLMSWFFAQYLGDGGGVDLADPRFSPLRHANLGNLGTIHVVVAGFDPLRDEGIAYAEALKAAGNKVTLSEFKGQIHGFCSMAGVIEAGRTALVEGAALLKEAFAQA
modifications: Sequence encoding petroleum-degrading bacterium esterase.
B4: areA: Acinetobacter areA esterase expressed in E. coli BL21(DE3) (SEQ ID NO:2) (protein, listed as Acinetobacter sp.)
chain: MLQSLDPQLASFFAMLENQGAPAFDIGTLNDPNINEMRNWYLNFGPHVAGQFIELQDVEDLWIQVDDGSLRLRLYKTQRQHSESCETLIYFHGGGWCIGSIETHDLLCRHLVNDLDVNVISVDYRLAPEYPYPQAAHDAIHATQWIFEHASALGIHPDHLYVAGDSAGGNLAAITALTFKEQTYRTSLAGQILIYPCIDLTVIHDNKYPSFEKQKLTPPLSAEQMSKMIQIYLKNEDFAYQWLASPLLAQSHQHLPSTLIITAEFDPLHDQGCVYFEKLKSSLVNTEYHEIKGVVHGFFEMYGVLNKTKETINIIRAWLKNNTKSK

Legend:
[1] = Yuchi et al., 1993; cited from earlier work
[2] = tested on: isolated yeast mitochondria; assay: Ca2+ transport in isolated yeast mitochondria expressing aequorin (luminescence); assay type: biochemical, Saccharomyces cerevisiae; conditions: 2 μM A23187, medium containing no added Ca^2+, FIG. 22B
Experimental: For preculture, the transformant was inoculated into 50 ml of SC-U plus 2% glucose, and incubated in an air shaker at 180 rpm and 30° C. At 24 hr, the preculture was transferred to 500 ml of a medium containing 1% yeast extract, 2% peptone, 2% lactate, 1% galactose, 0.012% adenine, pH 5 w/NaOH, and growth was continued under conditions which were otherwise the same. Cells were harvested after an additional 24 hr, spheroplasts were prepared using zymolyase, and mitochondria were isolated by the method of Daum et al. (1982) as previously described (Jung et al., 1997). The final pellet was resuspended at ˜20 mg protein/ml in 0.6 M mannitol, 20 mM HEPES (K^+ salt, pH 6.8). Apoaequorin in the intact or disrupted mitochondria was reconstituted by incubation with coelenterazine as described above for cells.
For most experiments, the mitochondria were present at 0.4 mg protein/ml in a standard medium that contained 0.3 M KCl, 20 mM HEPES, (K^+ salt, pH 7.10), 10 mM KH2PO4, 2 mM EGTA, and 2 mM MgCl2. Other additions are described in greater detail below. Ca^2+ buffers were formed by adding various amounts of CaCl2 to this EGTA containing medium. The free Ca^2+ concentrations which resulted were calculated using a computer program (Brooks et al., 1992 Anal. Biochem. 201:119).
Luminescence measurements were carried out in 6×50 mm culture tubes, using a total volume of 0.3 ml, and were started by injection of 5-20 μl of mitochondria or cells. A SAI model 3000 integrating photometer was employed, with AJD sampling at 0.4 seconds intervals driven by Asyst software. Values were transformed into corresponding Ca^2+ concentrations by computer assisted calculations based upon published calibration methods (Allen et al., 1977 Science 195:996; Brini et al., 1995 J. Biol. Chem. 270:9896). For each value, the ratio of observed luminescence (L) to the potential luminescence remaining (Lmax) was calculated, and compared to a calibration curve which relates this ratio to the free Ca^2+ concentration. Thus, complete calibrated progress curves were generated. The total luminescence available initially (Ltotal) must be known and was determined in separate experiments, wherein a saturating Ca^2+ concentration (20 μM) is employed to discharge the aequorin completely. This value allows Lmax to be calculated at any time, as Ltotal minus the sum of luminescence that already occurred.
The calibration data were obtained at an ionic strength of 335 mM and in the presence of 1 mM Mg^2+, to mimic conditions in the mitochondrial matrix, because both factors influence the affinity of aequorin for Ca2+ (Cobbold et al., 1987 Biochem. J. 248:313). Luminescence values were corrected for low background values that are obtained when Ca^2+ is absent before conducting further calculations.

intact yeast = assay: Aequorin luminescence in intact yeast cells expressing mitochondrially targeted aequorin; assay type: cell-based, Saccharomyces cerevisiae; conditions: intact cells
Experimental: Yeast cells (strain X4003-5B; leu2, ade1, his4, met2, ura3, trp5, gal1) obtained from the Yeast Genetic Stock Center (Berkeley, Calif.) were transformed with the pYES2 plasmid, encoding the human mitochondrially targeted apoaequorin fragment, using the lithium acetate method (Sambrook et al., 1989), and INVSc1 cells were transformed with the pGK plasmid encoding the yeast mitochondrially targeted apoaequorin fragment. Selection was carried out on plates prepared with synthetic complete medium minus uracil (SC-U) (Sherman, 1991 Meths. Enzymol. 194:3). Transformed colonies were cultured in a small volume of SC-U and assayed for aequorin activity in vitro as described by Nakajima et al. (1991 Proc. Nat. Acad. Sci. USA 88:6878). Briefly, the cells were harvested by centrifugation, resuspended in lysis buffer (50 mM Tris, 2 mM EDTA, 0.5 mM PMSF, pH 8 w/NaOH), disrupted by vortexing with glass beads, and then treated with 0.1% Triton X-100 to release apoaequorin from the mitochondria. Following centrifugation, 200 μl aliquots of the supernatants were incubated with coelenterazine (2.5 μM) and 2-mercaptoethanol (2 μl), for ˜3 hr while standing on ice, to form the luminescent aequorin from its apoprotein. The coelenterazine cofactor is highly hydrophobic and readily permeates yeast cell membranes (Nakajima et al., 1991) such that reconstitution was conducted without disrupting the cells in some cases. 2-mercaptoethanol was omitted when intact cells were employed. A transformant which yielded high luminescence (named X4003-5B-AEQmito1) was selected for further characterization.
For preculture, the transformant was inoculated into 50 ml of SC-U plus 2% glucose, and incubated in an air shaker at 180 rpm and 30° C. At 24 hr, the preculture was transferred to 500 ml of a medium containing 1% yeast extract, 2% peptone, 2% lactate, 1% galactose, 0.012% adenine, pH 5 w/NaOH, and growth was continued under conditions which were otherwise the same. […]
Luminescence measurements were carried out in 6×50 mm culture tubes, using a total volume of 0.3 ml, and were started by injection of 5-20 μl of mitochondria or cells. […] For each value, the ratio of observed luminescence (L) to the potential luminescence remaining (Lmax) was calculated, and compared to a calibration curve which relates this ratio to the free Ca^2+ concentration. […] The total luminescence available initially (Ltotal) must be known and was determined in separate experiments, wherein a saturating Ca^2+ concentration (20 μM) is employed to discharge the aequorin completely. This value allows Lmax to be calculated at any time, as Ltotal minus the sum of luminescence that already occurred. […]

[3] = Esterase cleavage of divalent cation-sensitive indicator molecule precursors (fluorescence); assay type: biochemical; conditions: precursor 1 μg/ml, sonicated E. coli expressing the esterase
Text: Standard molecular biology procedures were used (Sambrook et al., 1989 Molecular Cloning: A Laboratory Manual, Cold Spring Harbor Laboratory Press, Cold Spring Harbor, N.Y.). All reagents were from Sigma (St. Louis, Mo.) unless otherwise indicated. E. coli cells expressing esterases from several sources: B. subtilis para-nitrobenzyl esterase from plasmid PNB106R (Zock et al., 1994) (SEQ ID NO:1; SEQ ID NO:7); Acinetobacter areA expressed in E. coli strain BL21(DE3) (SEQ ID NO:2; from plasmid pADPW40, Jones et al. 1999 J. Bacteriol. 181:4568, obtained from Drs. R. Jones and P. Williams, Univeristy of Wales Bangor, UK); Acinetobacter SalE expressed in E. coli strain BL21(DE3) (SEQ ID NO:3; from plasmid pADPW70, Jones et al. 2000 J. Bacteriol. 1832:2018, also obtained from Drs. R. Jones and P. Williams, Univeristy of Wales Bangor, UK) were grown in 10 mL of standard LB media plus ampicillin (100 μg/ml) at 37° C. Tetracycline (10 μg/ml) was present instead of ampicillin for the cells expressing B. subtilis para-nitrobenzyl esterase. For strains expressing all proteins except para-nitrobenzyle esterase, the cells were grown to an OD (λ=600 nm) of 0.6 and protein expression was induced by administration of […] IPTG for 4 hours until the culture reached an OD600 of ˜1.0. Cells expressing para-nitrobenzylesterase were grown at 30° C. and protein expression was induced by a temperature shift to 40° C. for 6 hours. The cells attained an OD600 of ˜1.0. Cells were washed, pelleted by centrifugation, and then resuspended in 0.5 ml of cold 0.12 M Tris Cl, pH 8.0. Cells were sonicated for ten seconds and then incubated on ice for ten seconds. This sonication step was repeated eight times.
For fluorescence measurements, a volume of 50 μl of the sonicated cell suspension was placed in 3.0 ml of 0.1 M KCl, 50 uM EGTA, 20 mM HEPES pH 7.40. As a divalent cation-sensitive indicator molecule, one of the following compounds (all from Molecular Probes, Inc., Eugene, Oreg.) was present at a final concentration of 1 μg/ml: BCECF AM (BCECF (2′,7′-bis-(2-carboxyethyl)-5-(and-6)-carboxyfluorescein), a proton indicator used as an esterase-cleavable control), Rhod-2 AM, Fluo-3 AM, Indo-1 AM, or Fura-2 AM. To monitor detection of divalent cation using the divalent cation-sensitive indicator molecules generated by esterase cleavage of the precursor forms, each reaction was made 2 mM CaCl2 The wavelengths used for the indicator dyes were as follows: Fluo-3, excitation 488 nm, emission 520 nm; Rhod-2, excitation 540 nm, emission 580 nm; Indo-1 AM, excitation 338 nm, emission scan […]; Fura-2, excitation scan 250-450 nm, emission 510 nm; BCECF, excitation 440 nm, emission 550 nm.

Molecule | hydrolysis of indicator precursors (AM esters) to Ca^2+-sensitive indicator molecules [3] | further results
COc1cc(N(CC(=O)O)CC(=O)O)c2nc(COc3cc(C)ccc3N(CC(=O)O)CC(=O)O)ccc2c1 [Quin-2] | – | pKa^4 [1]: 6.25
CNc1ccc2oc(C[C@H]3O[C@@]4(CC[C@H]3C)O[C@H]([C@H](C)C(=O)c3ccc[nH]3)[C@H](C)C[C@H]4C)nc2c1C(=O)O [A23187] | – | effect on matrix Ca^2+ concentration [2]: reduced the matrix Ca^2+ concentration below the detection limit; additional luminescence when added after the response to ETH 129 (intact yeast): absence of any additional luminescence
B1 | detectably hydrolyzed all divalent cation-sensitive indicator molecule precursors that were tested | –
B2 | no apparent Ca^2+ sensitivity was detected | –
B3 | Slow hydrolyses of Fura-2 AM and Indo-1 AM | –
B4 | rate of hydrolysis appeared to be significantly slower | –
